From the supplement of paper PMC10724198
± gives the standard deviation of the averaged measurements.

Tested on: Saccharomyces cerevisiae
Experiment: protein stability index of tFT-peptide fusion (C-terminal peptide) (PSI (0-1 scale)); higher = more stable (slower turnover)
Settings: temperature: 30 C
Description: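 MPS profiling in S. cerevisiae of the yeast C-terminome library: the last 12 aa of each annotated ORF are fused to the C-terminus of a sfGFP-mCherry timer, after a GGGS linker. Cells are FACS-sorted into 8 mCherry/sfGFP bins and deep-sequenced. PSI runs from 0 (unstable) to 1 (stable); wild type and das1Δ backgrounds, two technical replicates each.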

[1] = genetic background: das1 deletion

Sequence	protein stability index [1]	protein stability index (genetic background: wild type)
FSSSVMIIMKAS [NFT1 C-terminal 12 aa]	0.5186 ± 0.0012	0.115 ± 0.0065
FTFGTPIFLQLL [YFR010W-A C-terminal 12 aa]	0.653 ± 0.025	0.579 ± 0.1
FTFIIIQLFPAL [USE1 C-terminal 12 aa]	0.351 ± 0.016	0.385 ± 0.015
FTLVGYDKEFSD [ADH6 C-terminal 12 aa]	0.6911 ± 0.0014	0.70114 ± 0.00043
FVDDNTPLEHVC [YDL086W C-terminal 12 aa]	0.706 ± 0.011	0.7331 ± 0.0011
FVDYKTHPVGAN [RGI1 C-terminal 12 aa]	0.709 ± 0.01	0.7141 ± 0.0028
FVFALSYPYEEI [ALG2 C-terminal 12 aa]	0.713 ± 0.011	0.693 ± 0.038
FVKPGEICLREQ [RDH54 C-terminal 12 aa]	0.712 ± 0.039	0.701 ± 0.014
FVNNKGNFKDLK [ARG3 C-terminal 12 aa]	0.722 ± 0.025	0.686 ± 0.025
FWFLFPLRLPGG [IRC16 C-terminal 12 aa]	0.5766 ± 0.0015	0.5685 ± 0.0012
FWNCVDGHLKYD [INM1 C-terminal 12 aa]	0.724 ± 0.0075	0.715 ± 0.043
FWTINDDYGFLT [YLR278C C-terminal 12 aa]	0.757 ± 0.029	0.77104 ± 0.00063
GAAIAGAAAMLL [TIR3 C-terminal 12 aa]	0.718 ± 0.014	0.713 ± 0.022
GAGVMAAAAMLL [TIR2 C-terminal 12 aa]	0.714 ± 0.029	0.7089 ± 0.0066
GALERKLHIDEN [MAM1 C-terminal 12 aa]	0.6947 ± 0.0045	0.692 ± 0.046
GAVYFFSKARKA [COX26 C-terminal 12 aa]	0.7207 ± 0.0023	0.654 ± 0.037
GCVRSMLRDLQR [GCR2 C-terminal 12 aa]	0.6733 ± 0.0057	0.686 ± 0.01

Sequence	protein stability index [1]	protein stability index (genetic background: wild type)
GEDPYADLFRDF [TPK1 C-terminal 12 aa]	0.731 ± 0.0078	0.6846 ± 0.0053
GEGGHFVIKKIS [DIT1 C-terminal 12 aa]	0.6854 ± 0.0056	0.20324 ± 5.1e-05
GETIRVNYGSTQ [YJR154W C-terminal 12 aa]	0.685 ± 0.0089	0.689 ± 0.039
GEVVKTIIFGPE [SOR1 C-terminal 12 aa]	0.7 ± 0.017	0.696 ± 0.029
GEYYNLIVPSLD [YGK3 C-terminal 12 aa]	0.7209 ± 0.0012	0.698 ± 0.014
GFQTGSAKATSA [RPL37B C-terminal 12 aa]	0.703 ± 0.02	0.697 ± 0.019
GGLDCKSNVFMR [PAC1 C-terminal 12 aa]	0.697 ± 0.013	0.723 ± 0.0089
GGNKQAPGLELG [YMR242W-A C-terminal 12 aa]	0.6918 ± 0.0046	0.702 ± 0.006
GIILRSCWNPRQ [YOL159C-A C-terminal 12 aa]	0.721 ± 0.019	0.69 ± 0.0087
GILCSLMEFFTN [TDA6 C-terminal 12 aa]	0.727 ± 0.053	0.712 ± 0.059
GKKLVQEAFRIV [YPL039W C-terminal 12 aa]	0.715 ± 0.019	0.675 ± 0.035
GKRIIGMLHLDS [PUF4 C-terminal 12 aa]	0.685 ± 0.037	0.699 ± 0.01
GKSSKKKNRSRK [SSH4 C-terminal 12 aa]	0.726 ± 0.052	0.692 ± 0.018
GLEKKKKKQNNQ [NPR1 C-terminal 12 aa]	0.69 ± 0.015	0.662 ± 0.0018
GLLFDKKKKARK [NOP19 C-terminal 12 aa]	0.687 ± 0.012	0.691 ± 0.043
GNNNCPLHMDYI [STE5 C-terminal 12 aa]	0.7274 ± 0.0071	0.723 ± 0.015
GQTSRTVTPAPN [ITC1 C-terminal 12 aa]	0.726 ± 0.026	0.6887 ± 0.0059
